Measured values: the supplement of paper PMC7877785
± gives the uncertainty stated by the source.

Test: self-splicing fitness, log relative to wild type (ln ratio); higher = more splicing; Tetrahymena group I intron in knt gene, E. coli kanamycin selection, DiMSum; sequences stand for … in CUCUCU…GGAGGGAAAAGUUAUCAGGCAUGCACCUGGUAGCUAGUCUUUAAACCAAUAGAUUGCAUCGGUUUAAAAGGCAAGACCGUCAAAUUGCGGGAAAGGGGUCAACAGCCGUUCAGUACCAAGUCUCAGGGGAAACUUUGAGAUGGCCUUGCAAAGGGUAUGGUAAUAAGCUGACGGACAUGGUCCUAACCACGCAGCCAAGUCCUAAGUCAACAGAUCUUCUGUUGAUAUGGAUGCAGUUCACAGACUAAAUGUCGGUCGGGGAAGAUGUAUUCUUCUCAUAAGAUAUAGUCGGACCUCUCCUUAAUGGGAGCUAGCGGAUGAAGUGAUGCAACACUGGAGCCGCUGGGAACUAAUUUGUAUGCGAAAGUAUAUUGAUUAGUUUUGGAGUACUCGUGGUCG
How it was run: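 Library with all eight P1ex-region intron nucleotides randomised, intron inside the knt kanamycin-resistance gene on pET-22b(+), in E. coli BL21(DE3). Cells grew overnight at 37°C or 30°C on LB agar with or without 25 μg/mL kanamycin (plus 100 μg/mL carbenicillin, 50 μM IPTG, 0.2% rhamnose), in six replicate transformations. Pooled colonies were amplicon-sequenced on Illumina HiSeq 2500. DiMSum fitness is the error-weighted combination of wild-type-normalised replicate fold changes, kanamycin versus none.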

Sequence | self-splicing fitness (ln) (30 °C) | self-splicing fitness (ln) (37 °C)
GUUGAGCAAUAUUACGGGUU | -3.57 ± 0.27 | -2 ± 0.21
CACAAGCAAUAUUACGACUU | -3.49 ± 0.18 | -2.47 ± 0.21
CAAAAGCAAUAUUACGAUGA | -0.319 ± 0.074 | -0.167 ± 0.075
AACUAGCAAUAUUACGCGAC | -2.49 ± 0.27 | –
GCACAGCAAUAUUACGGCUC | -0.268 ± 0.071 | 0.523 ± 0.076
AACAAGCAAUAUUACGAUUU | 0.129 ± 0.056 | 0.672 ± 0.077
UAUUAGCAAUAUUACGGCAG | -0.281 ± 0.085 | -0.424 ± 0.12
ACAUAGCAAUAUUACGAUUU | -0.687 ± 0.062 | -0.157 ± 0.081
UUAUAGCAAUAUUACGCACA | -0.698 ± 0.085 | 0.287 ± 0.084
GCUGAGCAAUAUUACGGAGU | – | -2.38 ± 0.31
UAAGAGCAAUAUUACGGGCC | -2.08 ± 0.32 | -0.897 ± 0.3
AGGAAGCAAUAUUACGAGGG | -3.63 ± 0.26 | -3.07 ± 0.29
GCCCAGCAAUAUUACGAGCU | -3.47 ± 0.19 | -1.89 ± 0.15
UUGAAGCAAUAUUACGUAUA | -1.25 ± 0.11 | -0.207 ± 0.14
CUGUAGCAAUAUUACGUAUU | -4.45 ± 0.29 | -3.47 ± 0.33
CGAAAGCAAUAUUACGUUUG | -2.33 ± 0.12 | -1.74 ± 0.14
UUCUAGCAAUAUUACGACAC | -2.05 ± 0.27 | -1.71 ± 0.28
UACAAGCAAUAUUACGAUCG | 0.00344 ± 0.082 | 0.983 ± 0.11
GGCGAGCAAUAUUACGUGUC | -4.05 ± 0.21 | -1.46 ± 0.16
GGACAGCAAUAUUACGCGAC | -2.27 ± 0.28 | -1.09 ± 0.24
UCAUAGCAAUAUUACGGCAU | -3.91 ± 0.35 | -2.04 ± 0.23
GUCUAGCAAUAUUACGUAAA | -0.871 ± 0.085 | 0.379 ± 0.092
GGCUAGCAAUAUUACGAUUG | -1.67 ± 0.12 | -1.47 ± 0.13
AAAGAGCAAUAUUACGACUC | -1.4 ± 0.071 | -0.537 ± 0.1
GGUUAGCAAUAUUACGUAAA | -1.22 ± 0.13 | -0.462 ± 0.2

Sequence | self-splicing fitness (ln) (30 °C) | self-splicing fitness (ln) (37 °C)
AGUAAGCAAUAUUACGACAA | -1.35 ± 0.17 | -0.886 ± 0.17
GUGCAGCAAUAUUACGCGGA | -2.35 ± 0.27 | -1.08 ± 0.12
AACUAGCAAUAUUACGGGGA | -1.3 ± 0.12 | -0.982 ± 0.13
AGCGAGCAAUAUUACGUAAA | -2.53 ± 0.18 | -2.03 ± 0.31
CUCCAGCAAUAUUACGCACG | -1.52 ± 0.13 | -1.12 ± 0.18
GCAGAGCAAUAUUACGAAAC | -3.28 ± 0.14 | -2.23 ± 0.14
UUCAAGCAAUAUUACGCCUU | -1.8 ± 0.13 | -0.968 ± 0.2
UAGCAGCAAUAUUACGCUAU | -3.88 ± 0.23 | -3.49 ± 0.37
CAUCAGCAAUAUUACGCUGG | -3.62 ± 0.19 | -2.97 ± 0.2
AGCUAGCAAUAUUACGAUAA | -2.14 ± 0.12 | -1.12 ± 0.14
UUGAAGCAAUAUUACGAAAG | -1.47 ± 0.082 | -0.794 ± 0.1
UCCUAGCAAUAUUACGGCUA | – | -2.35 ± 0.27
CCGGAGCAAUAUUACGCGAA | -3.59 ± 0.42 | -2.41 ± 0.36
CAAAAGCAAUAUUACGGGUU | -3.28 ± 0.14 | -2.46 ± 0.16
GAGAAGCAAUAUUACGAGCC | -1.03 ± 0.097 | -0.808 ± 0.15
CACCAGCAAUAUUACGCUAU | -4.03 ± 0.16 | -2.21 ± 0.13
AUUGAGCAAUAUUACGUAUC | -1.48 ± 0.36 | –
AAGGAGCAAUAUUACGUCCG | -1.79 ± 0.2 | -1.03 ± 0.28
UACCAGCAAUAUUACGCUAU | -2.45 ± 0.11 | -0.409 ± 0.089
GUAAAGCAAUAUUACGUCAG | -3.53 ± 0.32 | -1.83 ± 0.19
UUUUAGCAAUAUUACGGACA | -1.41 ± 0.18 | -0.668 ± 0.17
ACCCAGCAAUAUUACGUUAC | -3.24 ± 0.14 | -1.13 ± 0.14
AGGUAGCAAUAUUACGGUAA | -2.123 ± 0.021 | -1.2 ± 0.034
CGUCAGCAAUAUUACGUGAU | -2.04 ± 0.1 | -1.18 ± 0.13
CCCUAGCAAUAUUACGACAA | -3.22 ± 0.35 | -2.1 ± 0.28

Sequence | self-splicing fitness (ln) (30 °C) | self-splicing fitness (ln) (37 °C)
AUCUAGCAAUAUUACGUGAG | -0.412 ± 0.095 | -0.00344 ± 0.17
ACUAAGCAAUAUUACGACAU | -0.431 ± 0.011 | -0.0773 ± 0.032
UUGGAGCAAUAUUACGUGCA | – | -1.94 ± 0.31
AGAUAGCAAUAUUACGACGU | 0.446 ± 0.097 | 0.203 ± 0.098
AUCAAGCAAUAUUACGAUAG | -2.36 ± 0.35 | -1.63 ± 0.43
AAAGAGCAAUAUUACGGCGU | -1.87 ± 0.098 | 0.269 ± 0.094
CUUAAGCAAUAUUACGGUCA | -3.8 ± 0.46 | -3.15 ± 0.32
CGGGAGCAAUAUUACGGGCG | -2.44 ± 0.31 | -2.67 ± 0.41
AGAAAGCAAUAUUACGAACG | -0.489 ± 0.084 | -0.004 ± 0.12
GAGGAGCAAUAUUACGCCGG | -3.44 ± 0.48 | -2.68 ± 0.36
UGAUAGCAAUAUUACGGGUC | -4.2 ± 0.34 | -2.63 ± 0.37
GUGAAGCAAUAUUACGAAGA | -0.478 ± 0.086 | -1.11 ± 0.14
UCCAAGCAAUAUUACGGAUU | -4.35 ± 0.2 | -3.1 ± 0.18
GUGCAGCAAUAUUACGGGUA | -2.35 ± 0.1 | -2.12 ± 0.12
CCUAAGCAAUAUUACGACCG | -1.24 ± 0.14 | -0.121 ± 0.13
AUUCAGCAAUAUUACGUGAA | -0.88 ± 0.065 | -0.398 ± 0.084
GGUCAGCAAUAUUACGACCU | -3.06 ± 0.3 | -2.07 ± 0.32
CAUUAGCAAUAUUACGCAGG | -2.18 ± 0.12 | -1.53 ± 0.13
AGGUAGCAAUAUUACGGAGA | -3.57 ± 0.037 | -2.82 ± 0.043
AACGAGCAAUAUUACGCUCA | -1.83 ± 0.12 | -0.666 ± 0.13
UGCAAGCAAUAUUACGGGCU | -1.12 ± 0.11 | -1.48 ± 0.14
GGAGAGCAAUAUUACGUUUA | -3.83 ± 0.33 | -2.03 ± 0.17
UACGAGCAAUAUUACGGUGG | -3.62 ± 0.14 | -2.13 ± 0.11
GGUGAGCAAUAUUACGGCAA | -1.26 ± 0.34 | -1.28 ± 0.42
CCAAAGCAAUAUUACGUACU | -3.69 ± 0.2 | -2.76 ± 0.27

Sequence | self-splicing fitness (ln) (30 °C) | self-splicing fitness (ln) (37 °C)
ACACAGCAAUAUUACGUCAU | -2.34 ± 0.072 | -2.33 ± 0.094
UAGCAGCAAUAUUACGUAUG | -1.13 ± 0.061 | -0.563 ± 0.084
AGACAGCAAUAUUACGACCC | -0.868 ± 0.29 | -0.564 ± 0.3
AUACAGCAAUAUUACGGUCA | -0.743 ± 0.09 | -0.0276 ± 0.099
CACAAGCAAUAUUACGUCGU | -3.56 ± 0.13 | -1.96 ± 0.11
UCUGAGCAAUAUUACGACAU | -3.788 ± 0.034 | -2.73 ± 0.044
UCUGAGCAAUAUUACGUCGG | -0.746 ± 0.093 | -0.184 ± 0.12
GAGCAGCAAUAUUACGAAUC | -2.08 ± 0.07 | -1.22 ± 0.083
CACGAGCAAUAUUACGACAA | – | -2.44 ± 0.28
UCUGAGCAAUAUUACGGAGU | -2.86 ± 0.19 | -2.57 ± 0.17
GACAAGCAAUAUUACGGUAG | -1.84 ± 0.098 | -0.222 ± 0.092
UACUAGCAAUAUUACGGACU | -0.895 ± 0.12 | -0.214 ± 0.17
UAUCAGCAAUAUUACGCACC | -0.885 ± 0.22 | 0.3 ± 0.29
GAGGAGCAAUAUUACGCAUU | -2.99 ± 0.43 | -0.645 ± 0.33
GCUUAGCAAUAUUACGGACG | -1.15 ± 0.13 | 0.122 ± 0.18
AAGGAGCAAUAUUACGGACC | -2.55 ± 0.17 | -2.97 ± 0.33
AGAAAGCAAUAUUACGUGAG | -1.39 ± 0.065 | -0.952 ± 0.099
ACCUAGCAAUAUUACGGUUU | -1.85 ± 0.065 | -0.482 ± 0.087
UGUCAGCAAUAUUACGGUGC | -3.51 ± 0.43 | -2.74 ± 0.38
UCUGAGCAAUAUUACGAUAC | – | -2.12 ± 0.25
UCCCAGCAAUAUUACGAUGC | -4.03 ± 0.3 | -3.29 ± 0.32
CCGCAGCAAUAUUACGAGCU | -2.93 ± 0.27 | -3.37 ± 0.28
